This is an account of results in patent publication EP2123670B1 (Bioxodes SA, dated 2017).

Assay [1] has as its target T1, plasmin (UniProt P00747 97-810). The assay is described as follows: SPR (BIAcore X), Ir-CPI immobilised at about 200 RU, factor injected at 5-300 nM; two-state model, ka1 (first step). For orientation: Surface plasmon resonance follows binding to a sensor surface in real time, without labels.
Assay [2] has as its target T2, factor XIa (UniProt P03951 19-625).
T2 construct: also called fXIa; FXIa
Described as above.

The target of assay [3] is T3, plasma kallikrein (UniProt P03952 20-638).
T3 construct: The active enzyme is the cleaved two-chain form of the precursor
T3 sequence (P03952 20-638 limits assumed): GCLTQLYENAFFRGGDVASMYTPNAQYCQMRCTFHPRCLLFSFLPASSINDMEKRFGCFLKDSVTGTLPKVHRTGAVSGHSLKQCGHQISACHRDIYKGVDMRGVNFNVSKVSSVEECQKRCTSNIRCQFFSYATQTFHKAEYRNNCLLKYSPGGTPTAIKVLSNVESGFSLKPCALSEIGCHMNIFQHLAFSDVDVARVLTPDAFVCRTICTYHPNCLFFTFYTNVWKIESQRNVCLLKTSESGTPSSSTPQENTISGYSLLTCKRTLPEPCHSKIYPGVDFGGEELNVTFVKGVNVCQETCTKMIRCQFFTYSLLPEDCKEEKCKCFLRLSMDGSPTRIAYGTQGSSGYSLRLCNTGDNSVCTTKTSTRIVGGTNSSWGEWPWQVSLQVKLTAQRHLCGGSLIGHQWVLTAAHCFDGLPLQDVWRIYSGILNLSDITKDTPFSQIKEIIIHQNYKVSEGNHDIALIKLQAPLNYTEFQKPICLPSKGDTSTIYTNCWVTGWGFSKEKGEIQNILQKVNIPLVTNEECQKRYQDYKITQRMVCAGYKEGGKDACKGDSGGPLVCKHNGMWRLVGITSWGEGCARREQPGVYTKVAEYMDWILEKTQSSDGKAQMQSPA
Described as above.

Assay [4] addresses T4, factor VIIa (UniProt P08709 61-466).
T4 construct: also called fVIIa; FVIIa
T4 sequence (looked up): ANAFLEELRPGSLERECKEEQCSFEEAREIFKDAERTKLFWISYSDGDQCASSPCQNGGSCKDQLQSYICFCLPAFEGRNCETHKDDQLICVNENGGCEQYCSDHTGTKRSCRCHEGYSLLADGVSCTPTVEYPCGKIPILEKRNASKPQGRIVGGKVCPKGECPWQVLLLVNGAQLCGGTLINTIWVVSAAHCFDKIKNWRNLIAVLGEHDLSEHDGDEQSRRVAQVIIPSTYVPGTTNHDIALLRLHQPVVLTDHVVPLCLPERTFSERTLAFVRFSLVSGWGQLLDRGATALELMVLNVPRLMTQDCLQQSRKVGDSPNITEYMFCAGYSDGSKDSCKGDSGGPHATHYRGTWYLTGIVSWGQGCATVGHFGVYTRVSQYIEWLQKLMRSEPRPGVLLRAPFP
Description: SPR (BIAcore X), Ir-CPI immobilised at 1500 RU on CM5, factor injected.

Assay [5] deals with T5, high molecular weight kininogen (UniProt P01042 19-644).
T5 construct: also called HMWK
T5 sequence (looked up): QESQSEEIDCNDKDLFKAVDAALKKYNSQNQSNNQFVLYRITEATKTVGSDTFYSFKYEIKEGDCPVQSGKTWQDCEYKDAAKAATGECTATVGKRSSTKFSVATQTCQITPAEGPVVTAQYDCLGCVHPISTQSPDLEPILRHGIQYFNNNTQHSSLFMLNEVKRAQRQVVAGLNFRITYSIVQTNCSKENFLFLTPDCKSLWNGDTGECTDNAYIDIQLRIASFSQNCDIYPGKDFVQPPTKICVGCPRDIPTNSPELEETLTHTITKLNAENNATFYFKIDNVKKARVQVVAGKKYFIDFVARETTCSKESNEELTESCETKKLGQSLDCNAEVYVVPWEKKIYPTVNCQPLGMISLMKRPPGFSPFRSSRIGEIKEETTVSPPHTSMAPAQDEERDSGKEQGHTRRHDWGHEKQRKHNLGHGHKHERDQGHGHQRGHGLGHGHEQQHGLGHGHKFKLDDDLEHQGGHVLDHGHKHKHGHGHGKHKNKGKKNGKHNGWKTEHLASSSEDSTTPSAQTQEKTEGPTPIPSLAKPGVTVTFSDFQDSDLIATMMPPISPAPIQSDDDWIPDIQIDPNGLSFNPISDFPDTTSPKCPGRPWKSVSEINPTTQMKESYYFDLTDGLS
Described as above.

Assay [6] has as its target T6, factor X (UniProt P00742 41-488).
T6 construct: Zymogen; also called fX
Described as above.

Assay [7] concerns the target t-PA (UniProt P00750 36-562). The assay is described as above.
In assay [8] the target is T7, plasminogen (UniProt P00747 20-810, limits assumed).
T7 construct: Zymogen
T7 sequence (P00747 20-810 limits assumed): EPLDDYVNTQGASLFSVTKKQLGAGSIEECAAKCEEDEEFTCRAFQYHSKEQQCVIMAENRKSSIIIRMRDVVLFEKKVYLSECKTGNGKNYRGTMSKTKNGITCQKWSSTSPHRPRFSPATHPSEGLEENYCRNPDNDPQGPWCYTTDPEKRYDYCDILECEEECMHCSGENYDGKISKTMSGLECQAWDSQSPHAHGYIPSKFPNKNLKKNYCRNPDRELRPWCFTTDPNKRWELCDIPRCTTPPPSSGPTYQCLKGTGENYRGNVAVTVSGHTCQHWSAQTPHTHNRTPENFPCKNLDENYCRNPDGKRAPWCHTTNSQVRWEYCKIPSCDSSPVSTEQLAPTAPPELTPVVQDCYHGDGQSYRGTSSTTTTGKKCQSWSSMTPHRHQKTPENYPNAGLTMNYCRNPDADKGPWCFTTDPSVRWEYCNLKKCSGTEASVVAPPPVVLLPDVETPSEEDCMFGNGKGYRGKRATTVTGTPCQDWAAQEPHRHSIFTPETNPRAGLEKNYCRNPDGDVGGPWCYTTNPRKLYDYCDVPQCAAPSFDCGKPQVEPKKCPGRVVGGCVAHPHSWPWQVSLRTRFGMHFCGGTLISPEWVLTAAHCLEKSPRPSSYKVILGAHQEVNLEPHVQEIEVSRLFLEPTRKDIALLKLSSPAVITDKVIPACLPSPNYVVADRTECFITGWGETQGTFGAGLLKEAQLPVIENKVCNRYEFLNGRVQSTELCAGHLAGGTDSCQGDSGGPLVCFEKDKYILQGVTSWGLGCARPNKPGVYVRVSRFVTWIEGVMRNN
The description is as above.

Assay [9] concerns the target T8, factor IX (UniProt P00740 47-461).
T8 construct: Zymogen; also called fIX
The assay is described as above.

Assay [10] deals with T9, thrombin (UniProt P00734 328-622).
T9 construct: also called factor IIa; IIa
The assay is described as above.

In assay [11] the target is T1, plasmin. The assay is described as follows: SPR (BIAcore X), Ir-CPI immobilised at about 200 RU, factor injected at 5-300 nM; two-state model, kd1 (first step).
The target of assay [12] is T2, factor XIa. The assay is described as above.
Assay [13] addresses T3, plasma kallikrein. Described as above.
The target of assay [14] is T1, plasmin. Description: SPR, Ir-CPI immobilised; two-state model, global equilibrium constant K = ka1ka2/kd1kd2.
In assay [15] the target is T2, factor XIa. Described as above.
The target of assay [16] is T3, plasma kallikrein. Described as above.
The target of assay [17] is T1, plasmin. The assay is described as follows: SPR, Ir-CPI immobilised; two-state model, forward rate of the conformation change.
In assay [18] the target is T2, factor XIa. The description is as above.
The target of assay [19] is T3, plasma kallikrein. The description is as above.
Assay [20] addresses T1, plasmin. Description: SPR, Ir-CPI immobilised; two-state model, backward rate of the conformation change.
Assay [21] concerns the target T2, factor XIa. The assay is described as above.
Assay [22] addresses T3, plasma kallikrein. Described as above.

T1 sequence (P00747 97-810 limits assumed): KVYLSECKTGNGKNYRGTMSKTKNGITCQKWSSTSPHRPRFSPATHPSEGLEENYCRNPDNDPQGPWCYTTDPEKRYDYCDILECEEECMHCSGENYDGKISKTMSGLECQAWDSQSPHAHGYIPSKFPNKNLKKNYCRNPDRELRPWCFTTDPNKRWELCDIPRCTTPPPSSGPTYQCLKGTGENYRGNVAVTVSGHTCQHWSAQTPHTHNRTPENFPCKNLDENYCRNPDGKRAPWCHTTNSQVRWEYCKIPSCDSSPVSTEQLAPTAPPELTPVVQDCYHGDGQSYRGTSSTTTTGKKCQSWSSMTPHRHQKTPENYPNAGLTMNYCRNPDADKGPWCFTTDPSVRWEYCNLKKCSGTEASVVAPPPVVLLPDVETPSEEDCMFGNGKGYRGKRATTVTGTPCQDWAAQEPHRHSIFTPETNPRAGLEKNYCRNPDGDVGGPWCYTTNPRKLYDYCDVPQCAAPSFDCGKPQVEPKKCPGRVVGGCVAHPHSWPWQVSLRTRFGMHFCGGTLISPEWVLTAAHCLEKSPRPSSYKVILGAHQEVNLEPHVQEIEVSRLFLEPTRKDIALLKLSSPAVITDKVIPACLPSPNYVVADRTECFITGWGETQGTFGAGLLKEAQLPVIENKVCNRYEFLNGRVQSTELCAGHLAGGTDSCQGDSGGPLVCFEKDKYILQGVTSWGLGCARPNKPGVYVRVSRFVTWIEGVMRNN
t-PA, sequence (P00750 36-562 limits assumed): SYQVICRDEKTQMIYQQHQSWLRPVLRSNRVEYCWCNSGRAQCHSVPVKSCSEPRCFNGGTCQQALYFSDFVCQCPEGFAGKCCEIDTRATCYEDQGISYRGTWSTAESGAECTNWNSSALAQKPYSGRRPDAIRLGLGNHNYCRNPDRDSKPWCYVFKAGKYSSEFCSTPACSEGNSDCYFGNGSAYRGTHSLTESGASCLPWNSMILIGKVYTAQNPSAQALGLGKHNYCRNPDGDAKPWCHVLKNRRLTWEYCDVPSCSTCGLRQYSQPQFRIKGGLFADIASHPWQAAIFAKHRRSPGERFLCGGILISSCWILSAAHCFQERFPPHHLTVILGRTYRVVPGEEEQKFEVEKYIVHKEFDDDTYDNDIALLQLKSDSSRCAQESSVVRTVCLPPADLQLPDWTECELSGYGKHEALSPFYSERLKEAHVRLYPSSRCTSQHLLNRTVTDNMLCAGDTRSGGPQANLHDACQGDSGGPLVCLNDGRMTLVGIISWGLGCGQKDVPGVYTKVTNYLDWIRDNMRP

B1: Ir-CPI (other)
chain: ANHKGRGRPAKCKLPPDDGPCRARIPSYYFDRKTKTCKEFMYGGCEGNENNFENITTCQEECRAKKV
notes: Expressed in E. coli as a GST fusion (pGEX-6P-1), released with PreScission protease and purified by gel filtration; Immobilised on a CM5 chip by amine coupling in the SPR assays; also called recombinant Ir-CPI
Broadly, the kon is a measure of how fast the partners come together. What is called koff is a measure of how fast the partners let go of each other. As to B1, the results for the kon in assay [1], in assay [2] and in [3] were 900000 M⁻¹ s⁻¹, 2.31e+06 M⁻¹ s⁻¹ and 34900 M⁻¹ s⁻¹, respectively. Also, the binding result in assay [4], in assay [5], in assay [6], in [7], in [8] and in [9] was “no binding (tested: 100 nM)” in each case. For the same molecule, the binding result in assay [10] is “no binding (tested: 100 nM)”. Moreover, the off-rate constant (koff) was 0.00535 s⁻¹ in [11], 0.102 s⁻¹ in assay [12] and 0.0532 s⁻¹ in [13]. The Ka in [14] came out at 3.3e+08 M⁻¹; in assay [15], 3.83e+08 M⁻¹; in [16], 4.51e+06 M⁻¹. The values for the ka2 in assay [17], in [18] and in [19] were 0.00582 s⁻¹, 0.0298 s⁻¹ and 0.00834 s⁻¹, respectively. Besides, the kd2 in assay [20] is 0.00614 s⁻¹; in assay [21], 0.00232 s⁻¹; in assay [22] it was 0.00142 s⁻¹.
